Starred links: 1 amine or outer side, 2 acyl side, 3 side chain; linkers in the order of their positions; H or OH if unused. Non-standard residues stand in square brackets, D forms with d. Groups on a side chain read outwards from the residue. No end group written: not given here. *: point of attachment. C20 diacid = O=C(O)CCCCCCCCCCCCCCCCCCC(=O)*; γGlu = O=C(O)[C@H](CCC(=O)[*:2])N[*:1]; 4Pal = N[C@@H](Cc1ccncc1)C(=O)O; αMeL = CC(C)C[C@](C)(N)C(=O)O; AEEA = NCCOCCOCC(=O)O; Aib = CC(C)(N)C(=O)O
T1: human glucose-dependent insulinotropic polypeptide (GIP) receptor (human, UniProt P48546 22-466)
T1 construct: whole, on cells; Assayed as crude membranes of stably transfected CHO cells; also called hGIPR; human GIP receptor
T1 sequence (looked up): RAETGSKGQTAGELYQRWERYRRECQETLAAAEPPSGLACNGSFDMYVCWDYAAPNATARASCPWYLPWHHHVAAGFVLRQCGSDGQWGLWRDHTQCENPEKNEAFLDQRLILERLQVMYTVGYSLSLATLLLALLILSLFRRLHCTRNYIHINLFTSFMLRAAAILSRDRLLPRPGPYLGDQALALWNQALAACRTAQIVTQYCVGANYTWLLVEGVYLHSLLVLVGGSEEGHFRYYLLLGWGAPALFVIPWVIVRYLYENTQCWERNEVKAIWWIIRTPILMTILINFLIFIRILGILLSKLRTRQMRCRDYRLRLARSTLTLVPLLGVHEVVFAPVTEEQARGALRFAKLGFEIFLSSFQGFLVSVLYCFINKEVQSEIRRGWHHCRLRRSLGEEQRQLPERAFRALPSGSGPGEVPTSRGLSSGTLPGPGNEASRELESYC


Tests used:
human GLP-1 receptor = molecular target: T2, human GLP-1 receptor (human, UniProt P43220 24-463); assay: SPA, displacement of [125I]-GLP-1 from hGLP-1R membranes, 0.1% bacitracin
T2 construct: whole, on cells; Assayed as crude membranes of stably transfected HEK293 cells; also called hGLP1R; hGLP-1R
Outline: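 Binding buffer: 25 mM HEPES pH 7.4, 2.5 mM CaCl₂, 1 mM MgCl₂, 0.1% bacitracin, 0.003% Tween-20, protease inhibitors without EDTA. Four-parameter nonlinear regression; Kᵢ given as geometric mean ± SEM, n = independent replicates run on different days.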

[1] = molecular target: T1, human glucose-dependent insulinotropic …; assay: SPA, displacement of [125I]-GIP from hGIPR membranes, 0.1% bacitracin
human glucagon receptor = molecular target: T3, human glucagon receptor (human, UniProt P47871 26-477); assay: SPA, displacement of [125I]-Gcg from hGcgR membranes, 0.1% bacitracin
T3 construct: whole, on cells; Assayed as crude membranes of stably transfected HEK293 cells; also called hGcgR; GcgR
T3 sequence (P47871 26-477): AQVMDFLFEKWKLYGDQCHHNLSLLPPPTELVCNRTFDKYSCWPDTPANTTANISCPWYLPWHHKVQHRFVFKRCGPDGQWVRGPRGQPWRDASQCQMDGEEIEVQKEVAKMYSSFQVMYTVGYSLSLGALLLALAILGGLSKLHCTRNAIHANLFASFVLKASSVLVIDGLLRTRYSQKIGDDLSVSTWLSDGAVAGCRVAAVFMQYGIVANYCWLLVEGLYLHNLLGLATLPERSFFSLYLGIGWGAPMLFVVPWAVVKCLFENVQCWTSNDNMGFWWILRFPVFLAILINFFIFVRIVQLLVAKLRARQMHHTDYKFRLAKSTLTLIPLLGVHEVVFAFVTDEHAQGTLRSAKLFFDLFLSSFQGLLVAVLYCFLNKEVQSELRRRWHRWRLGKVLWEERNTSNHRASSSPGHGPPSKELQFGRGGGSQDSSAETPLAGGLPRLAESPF
Outline: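 Binding buffer: 25 mM HEPES pH 7.4, 2.5 mM CaCl₂, 1 mM MgCl₂, 0.003% Tween-20, protease inhibitors without EDTA. Counted by scintillation after 12 h incubation/settling at room temperature. Four-parameter nonlinear fit; Kᵢ given as geometric mean ± SEM of independent replicates run on different days.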

| Binder | Ki (human GLP-1 receptor) | Ki [1] | Ki (human glucagon receptor) |
| --- | --- | --- | --- |
| Y[Aib]EGTFISDYSI[αMeL]LDKK([AEEA-AEEA-γGlu-C20 diacid])HQ[Aib]DFVE[4Pal]LLATGPSSGAPPPS-NH2 (N-terminus assumed; SMILES CC[C@H](C)[C@H](NC(=O)[C@H](Cc1ccccc1)NC(=O)[C@@H](NC(=O)CNC(=O)[C@H](CCC(=O)O)NC(=O)C(C)(C)NC(=O)[C@@H](N)Cc1ccc(O)cc1)[C@@H](C)O)C(=O)N[C@@H](CO)C(=O)N[C@@H](CC(=O)O)C(=O)N[C@@H](Cc1ccc(O)cc1)C(=O)N[C@@H](CO)C(=O)N[C@H](C(=O)N[C@@](C)(CC(C)C)C(=O)N[C@@H](CC(C)C)C(=O)N[C@@H](CC(=O)O)C(=O)N[C@@H](CCCCN)C(=O)N[C@@H](CCCCNC(=O)COCCOCCNC(=O)COCCOCCNC(=O)CC[C@H](NC(=O)CCCCCCCCCCCCCCCCCCC(=O)O)C(=O)O)C(=O)N[C@@H](Cc1c[nH]cn1)C(=O)N[C@@H](CCC(N)=O)C(=O)NC(C)(C)C(=O)N[C@@H](CC(=O)O)C(=O)N[C@@H](Cc1ccccc1)C(=O)N[C@H](C(=O)N[C@@H](CCC(=O)O)C(=O)N[C@@H](Cc1ccncc1)C(=O)N[C@@H](CC(C)C)C(=O)N[C@@H](CC(C)C)C(=O)N[C@@H](C)C(=O)N[C@H](C(=O)NCC(=O)N1CCC[C@H]1C(=O)N[C@@H](CO)C(=O)N[C@@H](CO)C(=O)NCC(=O)N[C@@H](C)C(=O)N1CCC[C@H]1C(=O)N1CCC[C@H]1C(=O)N1CCC[C@H]1C(=O)N[C@@H](CO)C(N)=O)[C@@H](C)O)C(C)C)[C@@H](C)CC) [Example 70] | 570 nM | 0.0421 nM | 857 nM |
| Y[Aib]EGTFISDYSI[αMeL]LDKK([AEEA-AEEA-γGlu-C20 diacid])HQ[Aib]DFVE[4Pal]LLAAGPSSGAPPPS-NH2 (N-terminus assumed; SMILES CC[C@H](C)[C@H](NC(=O)[C@H](Cc1ccccc1)NC(=O)[C@@H](NC(=O)CNC(=O)[C@H](CCC(=O)O)NC(=O)C(C)(C)NC(=O)[C@@H](N)Cc1ccc(O)cc1)[C@@H](C)O)C(=O)N[C@@H](CO)C(=O)N[C@@H](CC(=O)O)C(=O)N[C@@H](Cc1ccc(O)cc1)C(=O)N[C@@H](CO)C(=O)N[C@H](C(=O)N[C@@](C)(CC(C)C)C(=O)N[C@@H](CC(C)C)C(=O)N[C@@H](CC(=O)O)C(=O)N[C@@H](CCCCN)C(=O)N[C@@H](CCCCNC(=O)COCCOCCNC(=O)COCCOCCNC(=O)CC[C@H](NC(=O)CCCCCCCCCCCCCCCCCCC(=O)O)C(=O)O)C(=O)N[C@@H](Cc1c[nH]cn1)C(=O)N[C@@H](CCC(N)=O)C(=O)NC(C)(C)C(=O)N[C@@H](CC(=O)O)C(=O)N[C@@H](Cc1ccccc1)C(=O)N[C@H](C(=O)N[C@@H](CCC(=O)O)C(=O)N[C@@H](Cc1ccncc1)C(=O)N[C@@H](CC(C)C)C(=O)N[C@@H](CC(C)C)C(=O)N[C@@H](C)C(=O)N[C@@H](C)C(=O)NCC(=O)N1CCC[C@H]1C(=O)N[C@@H](CO)C(=O)N[C@@H](CO)C(=O)NCC(=O)N[C@@H](C)C(=O)N1CCC[C@H]1C(=O)N1CCC[C@H]1C(=O)N1CCC[C@H]1C(=O)N[C@@H](CO)C(N)=O)C(C)C)[C@@H](C)CC) [Example 78] | 394 nM | 0.0236 nM | 505 nM |
| Y[Aib]EGTFISDYSI[αMeL]LDEK([AEEA-AEEA-γGlu-C20 diacid])HQ[Aib]DFVE[4Pal]LLAAGPSSGAPPPS-NH2 (N-terminus assumed; SMILES CC[C@H](C)[C@H](NC(=O)[C@H](Cc1ccccc1)NC(=O)[C@@H](NC(=O)CNC(=O)[C@H](CCC(=O)O)NC(=O)C(C)(C)NC(=O)[C@@H](N)Cc1ccc(O)cc1)[C@@H](C)O)C(=O)N[C@@H](CO)C(=O)N[C@@H](CC(=O)O)C(=O)N[C@@H](Cc1ccc(O)cc1)C(=O)N[C@@H](CO)C(=O)N[C@H](C(=O)N[C@@](C)(CC(C)C)C(=O)N[C@@H](CC(C)C)C(=O)N[C@@H](CC(=O)O)C(=O)N[C@@H](CCC(=O)O)C(=O)N[C@@H](CCCCNC(=O)COCCOCCNC(=O)COCCOCCNC(=O)CC[C@H](NC(=O)CCCCCCCCCCCCCCCCCCC(=O)O)C(=O)O)C(=O)N[C@@H](Cc1c[nH]cn1)C(=O)N[C@@H](CCC(N)=O)C(=O)NC(C)(C)C(=O)N[C@@H](CC(=O)O)C(=O)N[C@@H](Cc1ccccc1)C(=O)N[C@H](C(=O)N[C@@H](CCC(=O)O)C(=O)N[C@@H](Cc1ccncc1)C(=O)N[C@@H](CC(C)C)C(=O)N[C@@H](CC(C)C)C(=O)N[C@@H](C)C(=O)N[C@@H](C)C(=O)NCC(=O)N1CCC[C@H]1C(=O)N[C@@H](CO)C(=O)N[C@@H](CO)C(=O)NCC(=O)N[C@@H](C)C(=O)N1CCC[C@H]1C(=O)N1CCC[C@H]1C(=O)N1CCC[C@H]1C(=O)N[C@@H](CO)C(N)=O)C(C)C)[C@@H](C)CC) [Example 85] | 220 nM | 0.0529 nM | 800 nM |
| Y[Aib]EGTFISDYSI[αMeL]LDKK([AEEA-AEEA-γGlu-C20 diacid])HQ[Aib]DFVE[4Pal]LLAQGPSSGAPPPS-NH2 (N-terminus assumed; SMILES CC[C@H](C)[C@H](NC(=O)[C@H](Cc1ccccc1)NC(=O)[C@@H](NC(=O)CNC(=O)[C@H](CCC(=O)O)NC(=O)C(C)(C)NC(=O)[C@@H](N)Cc1ccc(O)cc1)[C@@H](C)O)C(=O)N[C@@H](CO)C(=O)N[C@@H](CC(=O)O)C(=O)N[C@@H](Cc1ccc(O)cc1)C(=O)N[C@@H](CO)C(=O)N[C@H](C(=O)N[C@@](C)(CC(C)C)C(=O)N[C@@H](CC(C)C)C(=O)N[C@@H](CC(=O)O)C(=O)N[C@@H](CCCCN)C(=O)N[C@@H](CCCCNC(=O)COCCOCCNC(=O)COCCOCCNC(=O)CC[C@H](NC(=O)CCCCCCCCCCCCCCCCCCC(=O)O)C(=O)O)C(=O)N[C@@H](Cc1c[nH]cn1)C(=O)N[C@@H](CCC(N)=O)C(=O)NC(C)(C)C(=O)N[C@@H](CC(=O)O)C(=O)N[C@@H](Cc1ccccc1)C(=O)N[C@H](C(=O)N[C@@H](CCC(=O)O)C(=O)N[C@@H](Cc1ccncc1)C(=O)N[C@@H](CC(C)C)C(=O)N[C@@H](CC(C)C)C(=O)N[C@@H](C)C(=O)N[C@@H](CCC(N)=O)C(=O)NCC(=O)N1CCC[C@H]1C(=O)N[C@@H](CO)C(=O)N[C@@H](CO)C(=O)NCC(=O)N[C@@H](C)C(=O)N1CCC[C@H]1C(=O)N1CCC[C@H]1C(=O)N1CCC[C@H]1C(=O)N[C@@H](CO)C(N)=O)C(C)C)[C@@H](C)CC) [Example 79] | 486 nM | 0.0229 nM | 888 nM |
| Y[Aib]EGTFISDYSI[αMeL]LDEK([AEEA-AEEA-γGlu-C20 diacid])HQ[Aib]DFVE[4Pal]LLAGGPSSGAPPPS-NH2 (N-terminus assumed; SMILES CC[C@H](C)[C@H](NC(=O)[C@H](Cc1ccccc1)NC(=O)[C@@H](NC(=O)CNC(=O)[C@H](CCC(=O)O)NC(=O)C(C)(C)NC(=O)[C@@H](N)Cc1ccc(O)cc1)[C@@H](C)O)C(=O)N[C@@H](CO)C(=O)N[C@@H](CC(=O)O)C(=O)N[C@@H](Cc1ccc(O)cc1)C(=O)N[C@@H](CO)C(=O)N[C@H](C(=O)N[C@@](C)(CC(C)C)C(=O)N[C@@H](CC(C)C)C(=O)N[C@@H](CC(=O)O)C(=O)N[C@@H](CCC(=O)O)C(=O)N[C@@H](CCCCNC(=O)COCCOCCNC(=O)COCCOCCNC(=O)CC[C@H](NC(=O)CCCCCCCCCCCCCCCCCCC(=O)O)C(=O)O)C(=O)N[C@@H](Cc1c[nH]cn1)C(=O)N[C@@H](CCC(N)=O)C(=O)NC(C)(C)C(=O)N[C@@H](CC(=O)O)C(=O)N[C@@H](Cc1ccccc1)C(=O)N[C@H](C(=O)N[C@@H](CCC(=O)O)C(=O)N[C@@H](Cc1ccncc1)C(=O)N[C@@H](CC(C)C)C(=O)N[C@@H](CC(C)C)C(=O)N[C@@H](C)C(=O)NCC(=O)NCC(=O)N1CCC[C@H]1C(=O)N[C@@H](CO)C(=O)N[C@@H](CO)C(=O)NCC(=O)N[C@@H](C)C(=O)N1CCC[C@H]1C(=O)N1CCC[C@H]1C(=O)N1CCC[C@H]1C(=O)N[C@@H](CO)C(N)=O)C(C)C)[C@@H](C)CC) [Example 86] | 108 nM | 0.0533 nM | 462 nM |
